Measurements taken from US20110123529A1 (published 2011).

T1: active catalytic domain of MMP 7 (UniProt P09237 95-267)
T1 construct: domain: catalytic domain
T1 sequence (looked up): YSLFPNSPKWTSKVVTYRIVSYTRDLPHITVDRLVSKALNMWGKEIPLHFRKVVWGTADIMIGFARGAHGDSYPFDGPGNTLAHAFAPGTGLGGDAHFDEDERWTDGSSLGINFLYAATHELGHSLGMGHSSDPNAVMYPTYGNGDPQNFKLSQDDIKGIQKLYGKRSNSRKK

T2: active catalytic domain of MMP 1 (UniProt P03956 100-269, limits assumed)
T2 construct: domain: catalytic domain
T2 sequence (looked up): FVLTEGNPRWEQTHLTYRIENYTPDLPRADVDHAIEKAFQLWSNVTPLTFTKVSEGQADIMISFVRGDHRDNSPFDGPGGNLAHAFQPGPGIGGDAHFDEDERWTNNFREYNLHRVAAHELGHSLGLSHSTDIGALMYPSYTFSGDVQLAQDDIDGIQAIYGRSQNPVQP


Assays:
[1] = target: T3, human EGFR expressed on cells (Her-14 mouse fibroblasts; A431 carcinoma cells) (human, UniProt P00533 25-1210); experiment: phage ELISA on cells
T3 construct: whole, on cells; Parental NIH3T3 clone 2.2 (3T3) cells served as EGFR-negative control; also called EGFR^+ cells

[2] = target: T4, active catalytic domain of MMP 9 (UniProt P14780 107-444, limits assumed); experiment: dot blot, 50 ng catalytic domain on Hybond C-extra, periplasmic extract, anti-c-myc detection
T4 construct: domain: catalytic domain
Experimental: (§1) In order to check for non specific binding to other MMPs a similar approach was followed in which 50 ng of active catalytic domain of MMP 1, 2, 3, 7, 9 and 13 (all from Biomol Research laboratories Inc) was immobilized on Hybond C-extra. The membranes were blocked with skimmed milk overnight at 4° C., washed 5 times with PBS and transferred to 1.5 ml tubes. Periplasmic extracts (100 μl) were tenfold diluted in 1% skimmed milk and 1 ml was applied per membrane (2 cm²) and rotated for 1 hour at room temperature. Membranes were washed 5 times with PBS/0.05% Tween-20. Detection was performed using anti-c-myc antibody, followed by anti-mouse-HRP and DAP as substrate. Membranes were incubated with substrate at room temperature until clear spots were visible.

[3] = target: T1, active catalytic domain of MMP 7; experiment: as above
Experimental: as §1

[4] = target: T5, active catalytic domain of MMP 2 (UniProt P08253 110-452, limits assumed); experiment: as above
T5 construct: domain: catalytic domain
Experimental: as §1

[5] = target: active catalytic domain of MMP 13 (UniProt P45452 104-274); experiment: as above
Experimental: as §1

[6] = target: T2, active catalytic domain of MMP 1; experiment: as above
Experimental: as §1

[7] = target: T6, active catalytic domain of MMP 3 (UniProt P08254 100-272, limits assumed); experiment: as above
T6 construct: domain: catalytic domain
Experimental: as §1

[8] = target: T7, human MMP-12 catalytic domain (human, UniProt P39900 106-263); experiment: ELISA / dot blot on immobilized human MMP-12 catalytic domain, periplasmic extract, anti-c-myc detection
T7 construct: domain: catalytic domain; Sources: Prof; H. Tschesche (Universität Bielefeld) and Biomol Research laboratories Inc (SE 138-9090); also called human macrophage elastase
Experimental: To examine the clones selected using solid phase coated human MMP-12, plates were coated with human MMP-12 catalytic domain at a concentration of 1 μg/ml overnight at 4° C. Plates were washed 5 times with PBS/0.05% Tween-20. Wells were blocked with 1% skimmed milk for 2 hrs at room temperature. Periplasmic extracts (100 μl) were applied to the wells and incubated for 1 hour at room temperature. Plates were washed 5 times with PBS/0.05% Tween-20. Detection was performed using anti-c-myc antibody, followed by anti-mouse-HRP and ABTS/H₂O₂ as substrate. Plates were read at 405 nm after 30 minutes incubation at room temperature.
To examine the clones selected using membrane immobilized human MMP-12, 50 ng human MMP-12 catalytic domain samples were spotted on PVDF membrane as described in the manufacturers guidelines. 50 ng lysozyme was spotted as a negative control. The membranes were blocked with skimmed milk overnight at 4° C., washed 5 times with PBS and transferred to 1.5 ml tubes. Periplasmic extracts (100 μl) were tenfold diluted in 1% skimmed milk and 1 ml was applied per membrane (2 cm²) and rotated for 1 hour at room temperature. Membranes were washed 5 times with PBS/0.05% Tween-20. Detection was performed using anti-c-myc antibody, followed by anti-mouse-HRP and DAP as substrate. Membranes were incubated with substrate at room temperature until clear spots were visible.

human TNF-alpha = target: T8, human TNF-alpha (human, UniProt P01375 77-233); experiment: competition ELISA: VHH preincubated with biotinylated TNF-alpha, binding to immobilized receptor extracellular domain
T8 construct: also called TNFα; biotinylated TNF-alpha
Experimental: 100 μl of this mixture was transferred to a well of a microtiter plate, in which the extracellular domain of the receptor was immobilized.

binding result [1] | binding result [2] | binding result [3] | binding result [4] | binding result [5] | binding result [6] | binding result [7] | binding result [8] | binding result (human TNF-alpha) | Binder
binds |  |  |  |  |  |  |  |  | EGFR-B11 (VHH, From the internalization selection) VHH: QVQLQDSGGGLVQAGGSLRLSCAASRFSSAQYAIGWFRQAPGKEREGVSYITFSGGPTGYADSVKGRFTVSRDNAKNTVYLQMNSLKPEDTAVYYCAARPYTRPGSMWVSSLYDNWGQGTQVTVSS
 | no binding | no binding | no binding | no binding | no binding | no binding | binds |  | MMP-12 P1-26 (VHH, Tested as periplasmic extract, detected through its c-myc tag) VHH: QVQLQESGGGLVRAGGSLRLSCVASGRTLSKYRMGWFRQFPGKERELVAEIEWKSSSTWYRDSVKGRFTISRDNAKNTVYLRMNSLKPEDTAVYYCAAATLGEPLVKYTYWGQGTQVTVSS
 |  |  |  |  |  |  | binds |  | MMP-12 P5-29 (VHH, Selected on active MMP-12 on nitrocellulose (Hybond-C); also called clone P5-29) VHH: QVQLQESGGGLVQAGGSLRLSCAASGRTFTVYTTGWFRQAPGKEREFVAAIDWSGSSTYYTDSVKGRFTISRDNTKNTVYLQMNSLKPEDTAVYYCAARDAIVGVTDTSGYRYWGQGTQVTVSS
 |  |  |  |  |  |  |  | binds | VHH#3E-His tag (VHH, protein was purified by IMAC; also called TNF3E; VHH TNF3E) VHH: QVQLQESGGGLVQPGGSLRLSCAASGRTFSDHSGYTYTIGWFRQAPKEREFVARIYWSSGNTYYADSVKGRFAISRDIAKNTVDLTMNNLEPEDTAVYYCAARDGIPTSRSVESYNYWGQGTQVTVSS
binds |  |  |  |  |  |  |  |  | EGFR-F11 (VHH, From the internalization selection; also called clone EGFR-F11) VHH: QVQLQESGGRLVQAGGSLRLSCAASEHTFRGYAIGWFRQAPGKEREFVSSITYDGTLTNYADSVTGRFTISRDNAKNTVYLQMNSLKPEDTAVYVCAAGYSYRYTTLNQYDSWGQGTQVTVSS
 | no binding | no binding | no binding | no binding | no binding | no binding | binds |  | MMP-12 P1-41 (VHH, Tested as periplasmic extract, detected through its c-myc tag) VHH: QVQLQDSGGGLVRTGDSLRLSCVVFGGTISTYAMGWFRRAPGKEREFVAAIDASGGFTEYADSVRGRFRIARDNPLSAVYLQMNSLKPEDTAFYYCAADKDRDTVVRFTTTPNEYDYWGQGTQVTVSS
 | no binding | no binding | no binding | no binding | no binding | no binding | binds |  | MMP-12 P1-44 (VHH, Tested as periplasmic extract, detected through its c-myc tag) VHH: QVQLQESGGGLVQPGGSLRLSCAASGFTFNNHWLYWVRQAQGKGLEWVSAINPGGSTVYLDSVKGRFTISRGNTKNTLYLQMNSLKSEDTAVYYCTKAMAWATDWDEYDLWGQGTQVTVSS
 | no binding | no binding | no binding | no binding | no binding | no binding | binds |  | MMP-12 P1-1 (VHH, Tested as periplasmic extract, detected through its c-myc tag (pAX004: c-myc and hexahistidine tags)) VHH: QVQLQESGGGLVQPGGSLRLSCVASGFTFSDYPMAWVRQAPGKGLEWISVINSGGVNTSYAASVKGRFTISRDNAKNTLFLQMNSLKPEDTAVYYCAKYSLKNEQYWRGQGTQVTVSS
